In US20250304640A1 (ORIKINE BIO SL, published 2025):
Read-outs that look alike come from different tables or passages of the source.

T1: IL-10 receptor (IL-10R: IL10RA and IL10RB) on HEK-Blue IL-10 reporter cells (UniProt Q13651 22-578; Q08334 20-325, limits assumed)
T1 sequence (looked up) 1: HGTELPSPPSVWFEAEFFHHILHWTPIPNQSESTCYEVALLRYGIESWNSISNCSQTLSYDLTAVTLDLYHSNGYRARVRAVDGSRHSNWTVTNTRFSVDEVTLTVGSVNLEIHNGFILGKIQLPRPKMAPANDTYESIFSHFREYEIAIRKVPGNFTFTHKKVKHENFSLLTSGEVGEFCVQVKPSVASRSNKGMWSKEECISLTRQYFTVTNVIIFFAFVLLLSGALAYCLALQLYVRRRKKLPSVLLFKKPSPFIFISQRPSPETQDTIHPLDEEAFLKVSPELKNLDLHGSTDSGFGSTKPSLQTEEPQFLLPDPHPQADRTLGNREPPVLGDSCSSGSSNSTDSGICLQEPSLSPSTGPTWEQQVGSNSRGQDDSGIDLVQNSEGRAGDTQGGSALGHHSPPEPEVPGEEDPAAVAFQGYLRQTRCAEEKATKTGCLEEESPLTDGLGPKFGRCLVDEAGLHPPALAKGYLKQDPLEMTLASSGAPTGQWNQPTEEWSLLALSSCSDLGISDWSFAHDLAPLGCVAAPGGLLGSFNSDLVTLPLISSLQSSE
T1 sequence (looked up) 2: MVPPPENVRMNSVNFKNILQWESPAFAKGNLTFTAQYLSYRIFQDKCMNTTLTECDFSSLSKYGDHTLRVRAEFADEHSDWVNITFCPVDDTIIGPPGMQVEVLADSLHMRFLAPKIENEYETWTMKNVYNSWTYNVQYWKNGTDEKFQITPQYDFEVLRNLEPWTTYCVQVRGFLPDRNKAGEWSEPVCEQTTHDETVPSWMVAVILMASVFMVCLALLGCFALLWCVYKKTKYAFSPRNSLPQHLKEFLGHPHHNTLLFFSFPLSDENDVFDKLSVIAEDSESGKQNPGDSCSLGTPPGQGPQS


Experiments:
Experiment in all cases: cell-based or functional assay
[1] = molecular target: T1, IL-10 receptor (IL-10R: IL10RA and …)
CSF1 receptor (CSF1R) [2] = molecular target: T2, CSF1 receptor (CSF1R) (UniProt P07333 20-972, limits assumed)
T2 sequence (P07333 20-972 limits assumed): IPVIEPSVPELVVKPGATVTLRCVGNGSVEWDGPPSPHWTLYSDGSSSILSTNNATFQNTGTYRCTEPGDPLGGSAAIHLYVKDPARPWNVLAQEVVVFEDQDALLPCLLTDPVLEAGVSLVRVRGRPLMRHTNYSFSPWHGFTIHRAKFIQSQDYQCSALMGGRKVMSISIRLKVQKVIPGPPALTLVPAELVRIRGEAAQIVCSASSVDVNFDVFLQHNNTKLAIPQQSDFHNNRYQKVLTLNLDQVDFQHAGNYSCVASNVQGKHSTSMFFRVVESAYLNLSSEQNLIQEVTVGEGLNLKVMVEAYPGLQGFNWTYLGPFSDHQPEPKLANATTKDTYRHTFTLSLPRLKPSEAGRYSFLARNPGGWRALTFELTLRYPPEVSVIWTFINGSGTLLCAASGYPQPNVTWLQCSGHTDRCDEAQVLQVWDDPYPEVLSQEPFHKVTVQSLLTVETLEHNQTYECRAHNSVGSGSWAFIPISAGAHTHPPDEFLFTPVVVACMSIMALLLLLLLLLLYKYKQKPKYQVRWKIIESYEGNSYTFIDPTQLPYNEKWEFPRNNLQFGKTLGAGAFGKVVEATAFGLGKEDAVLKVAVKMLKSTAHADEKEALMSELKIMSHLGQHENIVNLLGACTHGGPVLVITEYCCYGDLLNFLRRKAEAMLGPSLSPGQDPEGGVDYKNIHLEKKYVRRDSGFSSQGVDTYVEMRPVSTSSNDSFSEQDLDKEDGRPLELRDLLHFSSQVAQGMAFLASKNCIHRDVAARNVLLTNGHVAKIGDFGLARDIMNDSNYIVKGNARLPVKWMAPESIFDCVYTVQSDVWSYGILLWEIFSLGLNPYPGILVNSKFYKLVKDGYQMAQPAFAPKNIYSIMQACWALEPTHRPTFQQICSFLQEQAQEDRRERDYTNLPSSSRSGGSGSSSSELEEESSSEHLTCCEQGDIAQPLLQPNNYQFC

[3] = molecular target: T1, IL-10 receptor (IL-10R: IL10RA and …); remark: listed apart in the source
[4] = molecular target: T1, IL-10 receptor (IL-10R: IL10RA and …); remark: listed apart in the source
CSF1 receptor (CSF1R) [5] = molecular target: T2, CSF1 receptor (CSF1R); remark: listed apart in the source

Row | Binder | IL-10 EC-50, HEK-Blue IL-10 reporter cells [1] | CSF1 EC-50, HEK293 CSF1R/SRE reporter (CSF1 receptor (CSF1R) [2]) | IL-10 EC-50, HEK-Blue IL-10 reporter cells [3] | EC-50 for IL10 activity, HEK-Blue IL-10 reporter cells [4] | EC-50 for CSF1 activity, HEK293 CSF1R/SRE reporter (CSF1 receptor (CSF1R) [5])
1 | CSF1-IL10-HiBit (ligand) EEVSEYCSHMIGSGHLQSLQRLIDSQMETSCQITFEFVDQEQLKDPVCYLKKAFLLVQDIMEDTMRFRDNTPNAIAIVQLQELSLRLKSCFTKDYEEHDKACVRTFYETPLQLLEKVKNVFNETKNLLDKDWNIFSKNCNNSFAECSSQDGGGGGSGGSGGSGGSGGSGGSGGSGGSGGGSPGQGTQSENSCTHFPGNLPNMLRDLRDAFSRVKTFFQMKDQLDNLLLKESLLEDFKGYLGCQALSEMIQFYLEEVMPQAENQDPDIKAHVNSLGENLKTLRLRLRRCHRFLPCENKSKAVEQVKNAFNKLQEKGIYKAMSEFDIFINYIEAYMTMKIRNGGVSGWRLFKKIS | 1.16e-09 | 7.81e-10 |  |  | 
2 | IL-10-CSF1-HiBit (ligand) SPGQGTQSENSCTHFPGNLPNMLRDLRDAFSRVKTFFQMKDQLDNLLLKESLLEDFKGYLGCQALSEMIQFYLEEVMPQAENQDPDIKAHVNSLGENLKTLRLRLRRCHRFLPCENKSKAVEQVKNAFNKLQEKGIYKAMSEFDIFINYIEAYMTMKIRNGGGGGSGGSGGSGGSGGSGGSGGSGGSGGGEEVSEYCSHMIGSGHLQSLQRLIDSQMETSCQITFEFVDQEQLKDPVCYLKKAFLLVQDIMEDTMRFRDNTPNAIAIVQLQELSLRLKSCFTKDYEEHDKACVRTFYETPLQLLEKVKNVFNETKNLLDKDWNIFSKNCNNSFAECSSQDGGVSGWRLFKKIS | 5.9e-09 | 4.64e-09 |  |  | 
3 | CSF1-35AA-IL10-HiBit (ligand) EEVSEYCSHMIGSGHLQSLQRLIDSQMETSCQITFEFVDQEQLKDPVCYLKKAFLLVQDIMEDTMRFRDNTPNAIAIVQLQELSLRLKSCFTKDYEEHDKACVRTFYETPLQLLEKVKNVFNETKNLLDKDWNIFSKNCNNSFAECSSQDGGGGGSGGGGSGGSGGSGGSGGSGGSGGSGGSGGGRASPGQGTQSENSCTHFPGNLPNMLRDLRDAFSRVKTFFQMKDQLDNLLLKESLLEDFKGYLGCQALSEMIQFYLEEVMPQAENQDPDIKAHVNSLGENLKTLRLRLRRCHRFLPCENKSKAVEQVKNAFNKLQEKGIYKAMSEFDIFINYIEAYMTMKIRNGGVSGWRLFKKIS |  |  |  | 1.9e-10 | 6.5e-10
4 | CSF1-35AA-Foldikine10-HiBit (ligand) EEVSEYCSHMIGSGHLQSLQRLIDSQMETSCQITFEFVDQEQLKDPVCYLKKAFLLVQDIMEDTMRFRDNTPNAIAIVQLQELSLRLKSCFTKDYEEHDKACVRTFYETPLQLLEKVKNVFNETKNLLDKDWNIFSKNCNNSFAECSSQDGGGGGSGGGGSGGSGGSGGSGGSGGSGGSGGSGGGMTQSENSCTHFPGNLPNMLRDLRDAFSRVKTFFQMKDQLDNLLLKESLLEDFKGYLGCQALSEMIQFYLEEVMPQAENQEPDIKAHVNSLGENLKTLRLRLRRCHRFLPCENKSKAVEQVKNAFNKLQEKGIYKAMSEFDIFINYIEAYMTMNNGGLDYLPNMLRDLRDAFSRVKTFFQMKDQLDNLLLKESLLEDFKGYLGCQALSEMIQFYLEEVMPQAENQDPDIKAHVNSLGENLKTLRLRLRRNHRFLPCENKSKAVEQVKNAFNKLQEKGIYKAMSEFDIFINYIEAYMTMKIRNGGVSGWRLFKKIS |  |  |  | 3.18e-10 | 1.83e-09

Results, then the binder that gave them:

Row | IL-10 EC-50, HEK-Blue IL-10 reporter cells [1] | CSF1 EC-50, HEK293 CSF1R/SRE reporter (CSF1 receptor (CSF1R) [2]) | IL-10 EC-50, HEK-Blue IL-10 reporter cells [3] | EC-50 for IL10 activity, HEK-Blue IL-10 reporter cells [4] | EC-50 for CSF1 activity, HEK293 CSF1R/SRE reporter (CSF1 receptor (CSF1R) [5]) | Binder
5 | 2.14e-10 |  |  |  |  | foldikine10-HiBit (ligand) MTQSENSCTHFPGNLPNMLRDLRDAFSRVKTFFQMKDQLDNLLLKESLLEDFKGYLGCQALSEMIQFYLEEVMPQAENQEPDIKAHVNSLGENLKTLRLRLRRCHRFLPCENKSKAVEQVKNAFNKLQEKGIYKAMSEFDIFINYIEAYMTMNNGGLDYLPNMLRDLRDAFSRVKTFFQMKDQLDNLLLKESLLEDFKGYLGCQALSEMIQFYLEEVMPQAENQDPDIKAHVNSLGENLKTLRLRLRRNHRFLPCENKSKAVEQVKNAFNKLQEKGIYKAMSEFDIFINYIEAYMTMKIRNGGVSGWRLFKKIS
6 | 1.36e-09 | 3.18e-09 |  |  |  | Foldikine10-CSF1-HiBit (ligand) MTQSENSCTHFPGNLPNMLRDLRDAFSRVKTFFQMKDQLDNLLLKESLLEDFKGYLGCQALSEMIQFYLEEVMPQAENQEPDIKAHVNSLGENLKTLRLRLRRCHRFLPCENKSKAVEQVKNAFNKLQEKGIYKAMSEFDIFINYIEAYMTMNNGGLDYLPNMLRDLRDAFSRVKTFFQMKDQLDNLLLKESLLEDFKGYLGCQALSEMIQFYLEEVMPQAENQDPDIKAHVNSLGENLKTLRLRLRRNHRFLPCENKSKAVEQVKNAFNKLQEKGIYKAMSEFDIFINYIEAYMTMKIRNGGGGGSGGSGGSGGSGGSGGSGGSGGSGGGEEVSEYCSHMIGSGHLQSLQRLIDSQMETSCQITFEFVDQEQLKDPVCYLKKAFLLVQDIMEDTMRFRDNTPNAIAIVQLQELSLRLKSCFTKDYEEHDKACVRTFYETPLQLLEKVKNVFNETKNLLDKDWNIFSKNCNNSFAECSSQDGGVSGWRLFKKIS
7 |  |  | 3.06e-10 |  |  | CSF1-Foldikine10_cut116-HiBit (ligand) EEVSEYCSHMIGSGHLQSLQRLIDSQMETSCQITFEFVDQEQLKDPVCYLKKAFLLVQDIMEDTMRFRDNTPNAIAIVQLQELSLRLKSCFTKDYEEHDKACVRTFYETPLQLLEKVKNVFNETKNLLDKDWNIFSKNCNNSFAECSSQDGGGGGSGGSGGSGGSGGSGGSGGSGGSGGGMTQSENSCTHFPGNLPNMLRDLRDAFSRVKTFFQMKDQLDNLLLKESLLEDFKGYLGCQALSEMIQFYLEEVMPQAENQEPDIKAHVNSLGENLKTLRLRLRRCHRFLPCENKSKAVEQVKNAFNKLQEKGIYKAMSEFDIFINYIEAYMTMNNGGLDYLPNMLRDLRDAFSRVKTFFQMKDQLDNLLLKESLLEDFKGYLGCQALSEMIQFYLEEVMPQAENQDPDIKAHVNSLGENLKTLRLRLRRNHRFLPCENKSKAVEQVKNAFNKLQEKGIYKAMSEFDIFINYIEAYMTMKIRNGGVSGWRLFKKIS
8 |  |  |  | 2.35e-10 | 5.5e-10 | CSF1-30AA-IL10-HiBit (ligand) EEVSEYCSHMIGSGHLQSLQRLIDSQMETSCQITFEFVDQEQLKDPVCYLKKAFLLVQDIMEDTMRFRDNTPNAIAIVQLQELSLRLKSCFTKDYEEHDKACVRTFYETPLQLLEKVKNVFNETKNLLDKDWNIFSKNCNNSFAECSSQDGGGGGSGGSGGSGGSGGSGGSGGSGGSGGGRASPGQGTQSENSCTHFPGNLPNMLRDLRDAFSRVKTFFQMKDQLDNLLLKESLLEDFKGYLGCQALSEMIQFYLEEVMPQAENQDPDIKAHVNSLGENLKTLRLRLRRCHRFLPCENKSKAVEQVKNAFNKLQEKGIYKAMSEFDIFINYIEAYMTMKIRNGGVSGWRLFKKIS
9 |  |  |  | 2.6e-10 | 1.19e-09 | CSF1-15AA-Foldikine10-HiBit (ligand) EEVSEYCSHMIGSGHLQSLQRLIDSQMETSCQITFEFVDQEQLKDPVCYLKKAFLLVQDIMEDTMRFRDNTPNAIAIVQLQELSLRLKSCFTKDYEEHDKACVRTFYETPLQLLEKVKNVFNETKNLLDKDWNIFSKNCNNSFAECSSQDGGSGGSGGSGGSGGGMTQSENSCTHFPGNLPNMLRDLRDAFSRVKTFFQMKDQLDNLLLKESLLEDFKGYLGCQALSEMIQFYLEEVMPQAENQEPDIKAHVNSLGENLKTLRLRLRRCHRFLPCENKSKAVEQVKNAFNKLQEKGIYKAMSEFDIFINYIEAYMTMNNGGLDYLPNMLRDLRDAFSRVKTFFQMKDQLDNLLLKESLLEDFKGYLGCQALSEMIQFYLEEVMPQAENQDPDIKAHVNSLGENLKTLRLRLRRNHRFLPCENKSKAVEQVKNAFNKLQEKGIYKAMSEFDIFINYIEAYMTMKIRNGGVSGWRLFKKIS
10 |  |  |  | 3.61e-10 | 1.64e-09 | CSF1-25AA-Foldikine10-HiBit (ligand) EEVSEYCSHMIGSGHLQSLQRLIDSQMETSCQITFEFVDQEQLKDPVCYLKKAFLLVQDIMEDTMRFRDNTPNAIAIVQLQELSLRLKSCFTKDYEEHDKACVRTFYETPLQLLEKVKNVFNETKNLLDKDWNIFSKNCNNSFAECSSQDGGGGGSGGSGGSGGSGGSGGSGGSGGSGGGMTQSENSCTHFPGNLPNMLRDLRDAFSRVKTFFQMKDQLDNLLLKESLLEDFKGYLGCQALSEMIQFYLEEVMPQAENQEPDIKAHVNSLGENLKTLRLRLRRCHRFLPCENKSKAVEQVKNAFNKLQEKGIYKAMSEFDIFINYIEAYMTMNNGGLDYLPNMLRDLRDAFSRVKTFFQMKDQLDNLLLKESLLEDFKGYLGCQALSEMIQFYLEEVMPQAENQDPDIKAHVNSLGENLKTLRLRLRRNHRFLPCENKSKAVEQVKNAFNKLQEKGIYKAMSEFDIFINYIEAYMTMKIRNGGVSGWRLFKKIS
